Assay results as given in article PMC11832770, “NADH-bound AIF activates the mitochondrial CHCHD4/MIA40 chaperone by a substrate-mimicry mechanism” (The EMBO Journal, 2025).

B1: CHCHD4-SPS (C53S/C55S), full length (natural protein, human, UniProt Q8N4Q1 1-142, looked up)
chain: MSYCRQEGKDRIIFVTKEDHETPSSAELVADDPNDPYEEHGLILPNGNINWNSPSLGGMASGPCGEQFKSAFSCFHYSTEEIKGSDCVDQFRAMQECMQKYPDLYPQEDEDEEEEREKKPAEQAEETAPIEATATKEEEGSS
notes: source: E. coli Rosetta2Gami(DE3), purified (Ni-NTA, PreScission cleavage, subtractive Ni-NTA, Superdex 75); not shown: GB1-6X-His, N-terminal, cleaved

Columns and labels:
both import substrates = test: ITC; 700-750 µM CPC-inactivated CHCHD4 constructs titrated into 50 µM unfolded substrate; 25 mM HEPES pH 7.5, 150 mM NaCl, 1 mM TCEP; 25 °C
Atto488-AIF(78-613)/NADH [1] = target: T1, Atto488-AIF(78-613)/NADH (human, UniProt O95831 78-613, ATTO 488 (NHS ester) on the N-terminus); test: MST; CHCHD4 constructs titrated (1.8 nM–15 or 30 µM) into 100 nM Atto488-AIF(78-613) with unlabeled AIF and NADH (pre-formed charge-transfer complex); 25 mM HEPES pH 7.5, 150 mM NaCl, 0.01% Tween-20, 5 mM TCEP; 25 °C; first block of Table 1 (Fig. 1B); conditions: both partners purified
T1 construct: Apoptosis-inducing factor (AIF), human, residues 78-613; also called Atto488-AIF-NADH; Atto488-AIF/NADH

[2] = target: B1; test: MST; CHCHD4-SPS titrated (15 nM–30 µM) into 100 nM unfolded Atto488-ΔN-CHCHD4-SPS in the presence of AIF(78-613) and NADH (2x stock 30 µM AIF/300 µM NADH); 25 mM HEPES pH 7.5, 150 mM NaCl, 0.01% Tween-20, 5 mM TCEP; 25 °C; a sample with added CHCHD4-N45 showed decreased binding; conditions: both partners purified
[3] = target: T2, CHCHD6, unfolded and reduced (human, UniProt Q9BRQ6 1-235); test: ITC; 700-750 µM CPC-inactivated CHCHD4 constructs titrated into 50 µM unfolded substrate; 25 mM HEPES pH 7.5, 150 mM NaCl, 1 mM TCEP; 25 °C; conditions: both partners purified
T2 construct: CHCHD6 (MIC25), human, CX9C import substrate; construct from the DNASU Plasmid Repository inserted into pET30a; also called unfolded CHCHD6 substrate; MIC25; source: E. coli Rosetta2Gami(DE3), purified; unfolded by heating at 70 °C for 20 min with TCEP; not shown: GB1-6X-His, N-terminal, cleaved
T2 sequence (looked up): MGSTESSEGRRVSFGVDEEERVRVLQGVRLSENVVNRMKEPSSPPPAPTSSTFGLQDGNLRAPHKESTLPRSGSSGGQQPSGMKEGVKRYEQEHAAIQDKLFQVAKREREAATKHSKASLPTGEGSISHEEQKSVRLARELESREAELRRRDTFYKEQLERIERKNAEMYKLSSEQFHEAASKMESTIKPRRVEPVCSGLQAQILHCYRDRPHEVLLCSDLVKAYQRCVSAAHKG

[4] = target: T3, ΔN-CHCHD4-SPS (residues 40-142, C53S/C55S) (human, UniProt Q8N4Q1 40-142, C53S | C55S); test: ITC
T3 sequence: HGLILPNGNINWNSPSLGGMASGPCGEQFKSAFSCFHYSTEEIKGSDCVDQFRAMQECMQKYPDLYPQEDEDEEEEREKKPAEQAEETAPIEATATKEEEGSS

[5] = target: T4, CHCHD4-SPS (C53S/C55S), full length (human, UniProt Q8N4Q1 1-142, C53S | C55S); test: ITC
T4 sequence: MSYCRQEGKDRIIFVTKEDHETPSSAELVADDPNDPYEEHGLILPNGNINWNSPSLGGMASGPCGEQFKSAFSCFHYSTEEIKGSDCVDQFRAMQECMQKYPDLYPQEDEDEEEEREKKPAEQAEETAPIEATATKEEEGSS

[6] = target: T5, CHCHD4-AIA-A-SPS (I12A/F14A/H20A/C53S/C55S) (human, UniProt Q8N4Q1 1-142, I12A | F14A | H20A | C53S | C55S); test: ITC
T5 sequence: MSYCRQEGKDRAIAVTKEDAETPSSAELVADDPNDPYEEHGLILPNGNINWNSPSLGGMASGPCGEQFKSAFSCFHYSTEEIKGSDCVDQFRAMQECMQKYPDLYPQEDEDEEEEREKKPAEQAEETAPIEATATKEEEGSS

[7] = target: T6, CHCHD4-SPS (C53S/C55S), full length (human, UniProt Q8N4Q1 1-142, C53S | C55S, heat-unfolded and TCEP-reduced (free cysteines). The printed accession E5RGN4 is not among the candidates; the canonical human CHCHD10 entry Q8WYQ3 (used for the AlphaFold model) is taken instead. …); test: ITC
T6 sequence: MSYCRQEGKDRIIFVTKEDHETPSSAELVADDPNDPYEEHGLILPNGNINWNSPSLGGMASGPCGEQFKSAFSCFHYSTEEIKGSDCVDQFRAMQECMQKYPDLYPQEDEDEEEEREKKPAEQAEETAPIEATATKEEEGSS

[8] = target: T7, ΔN-CHCHD4-SPS (residues 40-142, C53S/C55S) (human, UniProt Q8N4Q1 40-142, C53S | C55S, heat-unfolded and TCEP-reduced (free cysteines). The printed accession E5RGN4 is not among the candidates; the canonical human CHCHD10 entry Q8WYQ3 (used for the AlphaFold model) is taken instead. …); test: ITC
T7 sequence: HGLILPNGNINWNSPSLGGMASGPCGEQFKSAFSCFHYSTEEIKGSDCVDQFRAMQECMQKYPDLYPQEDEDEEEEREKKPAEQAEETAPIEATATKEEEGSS

[9] = target: T8, CHCHD4-AIA-A-SPS (I12A/F14A/H20A/C53S/C55S) (human, UniProt Q8N4Q1 1-142, I12A | F14A | H20A | C53S | C55S, heat-unfolded and TCEP-reduced (free cysteines). The printed accession E5RGN4 is not among the candidates; the canonical human CHCHD10 entry Q8WYQ3 (used for the AlphaFold model) is taken instead. …); test: ITC
T8 sequence: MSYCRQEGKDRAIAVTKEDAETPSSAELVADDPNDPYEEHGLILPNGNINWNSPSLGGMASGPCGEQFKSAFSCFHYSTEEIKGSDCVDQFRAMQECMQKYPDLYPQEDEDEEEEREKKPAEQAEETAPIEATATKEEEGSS

Atto488-AIF(78-613)/NADH [10] = target: T1, Atto488-AIF(78-613)/NADH; test: MST; CHCHD4 interface mutants titrated (1.8 nM–15 or 30 µM) into 100 nM Atto488-AIF(78-613) with unlabeled AIF and NADH; same buffer, 25 °C; third block of Table 1 (Fig. 2A), fitted with a Hill coefficient; conditions: both partners purified
AIF(104-613)-W196A = target: T9, AIF(104-613)-W196A (human, UniProt O95831 104-613, W196A); test: crystal structure; AIF(104-613)-W196A-CHCHD4(1-45) chimera, hanging drop, 0.1 M HEPES pH 8, 0.1 M NaCl, 18% PEG3350; CHCHD4 N45 linked to the C-terminus of AIF by …; AIF dimer with N45 resolved on both monomers; conditions: both partners purified
T9 construct: Apoptosis-inducing factor (AIF), human, residues 104-613; Stands only for the AIF half of the crystallised chimera, so that the AIF-CHCHD4 contact can be written as a pair; also called dimer-permissive AIF (104-613) W196A mutant; source: E. coli Rosetta2(DE3), purified, as the AIF part of the chimera m17

[11] = target: the molecule itself; test: SEC; Superdex 75 10/300, 25 mM HEPES pH 7.5, 150 mM NaCl, without reducing agent (also ± 5 mM βME and after 0-10 mM TCEP); 200 µM samples; monomer against disulfide-mediated dimer

T1 sequence (O95831 78-613): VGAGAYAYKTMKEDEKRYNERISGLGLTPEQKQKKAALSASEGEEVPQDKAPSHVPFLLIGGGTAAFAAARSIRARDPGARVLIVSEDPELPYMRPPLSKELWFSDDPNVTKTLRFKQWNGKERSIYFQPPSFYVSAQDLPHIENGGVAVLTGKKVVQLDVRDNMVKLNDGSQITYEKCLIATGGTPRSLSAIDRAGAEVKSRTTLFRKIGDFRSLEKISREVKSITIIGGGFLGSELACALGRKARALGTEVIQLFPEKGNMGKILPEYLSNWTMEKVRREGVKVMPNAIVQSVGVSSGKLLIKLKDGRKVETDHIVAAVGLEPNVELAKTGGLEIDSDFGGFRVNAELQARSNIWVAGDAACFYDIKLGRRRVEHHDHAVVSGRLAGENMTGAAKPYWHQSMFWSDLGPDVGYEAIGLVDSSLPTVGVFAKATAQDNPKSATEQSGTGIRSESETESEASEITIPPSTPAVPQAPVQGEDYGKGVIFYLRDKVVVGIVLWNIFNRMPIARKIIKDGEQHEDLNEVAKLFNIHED
T9 sequence (O95831 104-613 W196A): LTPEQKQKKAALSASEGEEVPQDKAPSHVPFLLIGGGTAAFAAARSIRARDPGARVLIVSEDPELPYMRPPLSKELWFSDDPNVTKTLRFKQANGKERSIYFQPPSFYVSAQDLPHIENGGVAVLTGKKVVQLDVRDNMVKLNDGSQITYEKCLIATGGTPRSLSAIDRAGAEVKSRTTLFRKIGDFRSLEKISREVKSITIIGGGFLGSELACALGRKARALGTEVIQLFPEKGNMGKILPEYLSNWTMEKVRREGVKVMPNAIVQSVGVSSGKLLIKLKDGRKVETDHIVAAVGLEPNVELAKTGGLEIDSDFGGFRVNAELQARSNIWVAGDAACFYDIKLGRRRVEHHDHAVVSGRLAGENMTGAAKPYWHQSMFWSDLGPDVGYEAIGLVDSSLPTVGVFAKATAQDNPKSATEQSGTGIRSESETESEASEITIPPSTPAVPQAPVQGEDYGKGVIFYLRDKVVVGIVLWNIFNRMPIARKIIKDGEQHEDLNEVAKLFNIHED

B1
Kd (both import substrates): 18 to 40 µM | Kd (Atto488-AIF(78-613)/NADH [1]): 0.23 µM

B2: Atto488-ΔN-CHCHD4-SPS, unfolded (domain or fragment, human, UniProt Q8N4Q1 40-142, looked up)
chain: HGLILPNGNINWNSPSLGGMASGPCGEQFKSAFSCFHYSTEEIKGSDCVDQFRAMQECMQKYPDLYPQEDEDEEEEREKKPAEQAEETAPIEATATKEEEGSS
modifications: ATTO 488 (NHS ester) on the N-terminus
notes: also called unfolded CHCH substrate; unfolded fluorescent substrate; not shown: GB1-6X-His, N-terminal, cleaved
binding result [2]: binds

B3: CHCHD4-AIA-A-SPS (I12A/F14A/H20A/C53S/C55S) (natural protein, human, UniProt Q8N4Q1 1-142, looked up)
chain: MSYCRQEGKDRAIAVTKEDAETPSSAELVADDPNDPYEEHGLILPNGNINWNSPSLGGMASGPCGEQFKSAFSCFHYSTEEIKGSDCVDQFRAMQECMQKYPDLYPQEDEDEEEEREKKPAEQAEETAPIEATATKEEEGSS
notes: CHCHD4/MIA40, human, full length; source: E. coli Rosetta2Gami(DE3), purified (Ni-NTA, PreScission cleavage, subtractive Ni-NTA, Superdex 75); not shown: GB1-6X-His, N-terminal, cleaved
binding result [3]: binds

B4: CHCHD6, unfolded and reduced (natural protein)
chain: MGSTESSEGRRVSFGVDEEERVRVLQGVRLSENVVNRMKEPSSPPPAPTSSTFGLQDGNLRAPHKESTLPRSGSSGGQQPSGMKEGVKRYEQEHAAIQDKLFQVAKREREAATKHSKASLPTGEGSISHEEQKSVRLARELESREAELRRRDTFYKEQLERIERKNAEMYKLSSEQFHEAASKMESTIKPRRVEPVCSGLQAQILHCYRDRPHEVLLCSDLVKAYQRCVSAAHKG
Kd [4]: 14.9 µM | Kd [5]: 26.5 µM | Kd [6]: 8.3 µM

B5: CHCHD10, unfolded and reduced (natural protein)
chain: MPRGSRSAASRPASRPAAPSAHPPAHPPPSAAAPAPAPSGQPGLMAQMATTAAGVAVGSAVGHVMGSALTGAFSGGSSEPSQPAVQQAPTPAAPQPLQMGPCAYEIRQFLDCSTTQSDLSLCEGFSEALKQCKYYHGLSSLP
Kd [7]: 20.4 µM | Kd [8]: 6.4 µM | Kd [9]: 4.5 µM

B6: CHCHD4, wild type, full length (natural protein, human, UniProt Q8N4Q1 1-142, looked up)
chain: MSYCRQEGKDRIIFVTKEDHETPSSAELVADDPNDPYEEHGLILPNGNINWNCPCLGGMASGPCGEQFKSAFSCFHYSTEEIKGSDCVDQFRAMQECMQKYPDLYPQEDEDEEEEREKKPAEQAEETAPIEATATKEEEGSS
notes: also called CHCHD4-WT; MIA40; source: E. coli Rosetta2Gami(DE3), purified (Ni-NTA, PreScission cleavage, subtractive Ni-NTA, Superdex 75); not shown: GB1-6X-His, N-terminal, cleaved
Kd (Atto488-AIF(78-613)/NADH [10]): 0.18 µM | Kd (Atto488-AIF(78-613)/NADH [1]): 0.58 µM

B7: CHCHD4-AIA (I12A/F14A) (natural protein, human, UniProt Q8N4Q1 1-142, looked up)
chain: MSYCRQEGKDRAIAVTKEDHETPSSAELVADDPNDPYEEHGLILPNGNINWNCPCLGGMASGPCGEQFKSAFSCFHYSTEEIKGSDCVDQFRAMQECMQKYPDLYPQEDEDEEEEREKKPAEQAEETAPIEATATKEEEGSS
notes: CHCHD4/MIA40, human, full length; The methods print F12A/I14A for this mutant; the results print I12A/F14A; also called β-hairpin mutant; source: E. coli Rosetta2Gami(DE3), purified (Ni-NTA, PreScission cleavage, subtractive Ni-NTA, Superdex 75); not shown: GB1-6X-His, N-terminal, cleaved
Kd (Atto488-AIF(78-613)/NADH [10]): 3 µM

B8: CHCHD4-L28D (natural protein, human, UniProt Q8N4Q1 1-142, looked up)
chain: MSYCRQEGKDRIIFVTKEDHETPSSAEDVADDPNDPYEEHGLILPNGNINWNCPCLGGMASGPCGEQFKSAFSCFHYSTEEIKGSDCVDQFRAMQECMQKYPDLYPQEDEDEEEEREKKPAEQAEETAPIEATATKEEEGSS
notes: as for B3
Kd (Atto488-AIF(78-613)/NADH [10]): 0.24 µM

B9: CHCHD4-N45 (residues 1-45) (domain or fragment, human, UniProt Q8N4Q1 1-45, looked up)
chain: MSYCRQEGKDRIIFVTKEDHETPSSAELVADDPNDPYEEHGLILP
notes: In the crystal structure (PDB 8VGY) the same residues 1-45 stood linked to the C-terminus of AIF(104-613)-W196A; also called CHCHD4(1-45); source: E. coli Rosetta2Gami(DE3), purified (Ni-NTA, PreScission cleavage, subtractive Ni-NTA, Superdex 75); not shown: GB1-6X-His, N-terminal, cleaved
binding result (AIF(104-613)-W196A): binds | Kd (Atto488-AIF(78-613)/NADH [1]): 0.63 µM

B10: ΔN-CHCHD4-SPS (residues 40-142, C53S/C55S) (domain or fragment, human, UniProt Q8N4Q1 40-142, looked up)
chain: HGLILPNGNINWNSPSLGGMASGPCGEQFKSAFSCFHYSTEEIKGSDCVDQFRAMQECMQKYPDLYPQEDEDEEEEREKKPAEQAEETAPIEATATKEEEGSS
notes: Folded, as titrant in ITC and in analytical SEC; also called ΔN-SPS; source: E. coli Rosetta2Gami(DE3), purified (Ni-NTA, PreScission cleavage, subtractive Ni-NTA, Superdex 75); not shown: GB1-6X-His, N-terminal, cleaved
binding result [3]: binds

B11: ΔN-CHCHD4 (residues 40-142) (domain or fragment, human, UniProt Q8N4Q1 40-142, looked up)
chain: HGLILPNGNINWNCPCLGGMASGPCGEQFKSAFSCFHYSTEEIKGSDCVDQFRAMQECMQKYPDLYPQEDEDEEEEREKKPAEQAEETAPIEATATKEEEGSS
notes: also called N-terminal truncation mutant; source: E. coli Rosetta2Gami(DE3), purified (Ni-NTA, PreScission cleavage, subtractive Ni-NTA, Superdex 75); not shown: GB1-6X-His, N-terminal, cleaved
binding result [11]: binds
